# Source: patent CN104774268A
# What was measured:
# [1] = molecular target: EGFR on EGFR-positive cells (HT29; HCT116; MDA-MB-453) (human) (UniProt P00533); experiment: flow cytometry on HT29 cells, MFI titration fitted in GraphPad Prism
# [2] = molecular target: CD3 on CD3-positive Jurkat cells (human); experiment: flow cytometry on Jurkat cells, MFI titration fitted in GraphPad Prism
substance,measurement,setting,value
"EGFR×CD3 MSBODY M1001 (monovalent unit from Erbitux, single-chain unit anti-CD3 L2K ScFv-Fc) (bispecific antibody)",Kd,[1],0.65 nM
same,Kd,[2],8.73 nM
"EGFR×CD3 MSBODY M1003 (monovalent unit from Vectibix, single-chain unit anti-CD3 L2K ScFv-Fc) (bispecific antibody)",Kd,[1],0.65 nM
same,Kd,[2],14.4 nM
